Assay results taken from FireProtDB (doi:10.1110/ps.041111405).

Settings: Homo sapiens; pH 7; 37 °C; GdnHCl; Fluorescence; Sodium phosphate 10 mM; transition: 3; whole UniProt chain shown

B1: Gamma-crystallin D wild type, P07320 (protein)
chain: MGKITLYEDRGFQGRHYECSSDHPNLQPYLSRCNSARVDSGCWMLYEQPNYSGLQYFLRRGDYADHQQWMGLSDSVRSCRLIPHSGSHRIRLYEREDYRGQMIEFTEDCSCLQDRFRFNEIHSLNVLEGSWVLYELSNYRGRQYLLMPGDYRRYQDWGATNARVGSLRRVIDFS
denaturant m value: 3.1 kcal/mol/M
denaturant midpoint (higher = more stable): 2.8 M
unfolding free energy: 8.9 kcal/mol
